Source: patent publication US20240228604A1 (ALCHEMAB THERAPEUTICS, published 2024)

Assays:
Test in all cases: Retrogenix cell microarray, fixed HEK293 cells
[1] = biological target: T1, full-length human UNC5B on fixed HEK293 cells (Retrogenix panel) (human, UniProt Q8IZJ1 27-945)
T1 construct: whole, on cells

[2] = biological target: T2, full-length human DCC on fixed HEK293 cells (Retrogenix panel) (human, UniProt P43146 26-1447)
T2 construct: whole, on cells

[3] = biological target: T3, full-length human NEO1 on fixed HEK293 cells (Retrogenix panel) (human, UniProt Q92859 34-1461)
T3 construct: whole, on cells; also called neogenin
T3 sequence (looked up): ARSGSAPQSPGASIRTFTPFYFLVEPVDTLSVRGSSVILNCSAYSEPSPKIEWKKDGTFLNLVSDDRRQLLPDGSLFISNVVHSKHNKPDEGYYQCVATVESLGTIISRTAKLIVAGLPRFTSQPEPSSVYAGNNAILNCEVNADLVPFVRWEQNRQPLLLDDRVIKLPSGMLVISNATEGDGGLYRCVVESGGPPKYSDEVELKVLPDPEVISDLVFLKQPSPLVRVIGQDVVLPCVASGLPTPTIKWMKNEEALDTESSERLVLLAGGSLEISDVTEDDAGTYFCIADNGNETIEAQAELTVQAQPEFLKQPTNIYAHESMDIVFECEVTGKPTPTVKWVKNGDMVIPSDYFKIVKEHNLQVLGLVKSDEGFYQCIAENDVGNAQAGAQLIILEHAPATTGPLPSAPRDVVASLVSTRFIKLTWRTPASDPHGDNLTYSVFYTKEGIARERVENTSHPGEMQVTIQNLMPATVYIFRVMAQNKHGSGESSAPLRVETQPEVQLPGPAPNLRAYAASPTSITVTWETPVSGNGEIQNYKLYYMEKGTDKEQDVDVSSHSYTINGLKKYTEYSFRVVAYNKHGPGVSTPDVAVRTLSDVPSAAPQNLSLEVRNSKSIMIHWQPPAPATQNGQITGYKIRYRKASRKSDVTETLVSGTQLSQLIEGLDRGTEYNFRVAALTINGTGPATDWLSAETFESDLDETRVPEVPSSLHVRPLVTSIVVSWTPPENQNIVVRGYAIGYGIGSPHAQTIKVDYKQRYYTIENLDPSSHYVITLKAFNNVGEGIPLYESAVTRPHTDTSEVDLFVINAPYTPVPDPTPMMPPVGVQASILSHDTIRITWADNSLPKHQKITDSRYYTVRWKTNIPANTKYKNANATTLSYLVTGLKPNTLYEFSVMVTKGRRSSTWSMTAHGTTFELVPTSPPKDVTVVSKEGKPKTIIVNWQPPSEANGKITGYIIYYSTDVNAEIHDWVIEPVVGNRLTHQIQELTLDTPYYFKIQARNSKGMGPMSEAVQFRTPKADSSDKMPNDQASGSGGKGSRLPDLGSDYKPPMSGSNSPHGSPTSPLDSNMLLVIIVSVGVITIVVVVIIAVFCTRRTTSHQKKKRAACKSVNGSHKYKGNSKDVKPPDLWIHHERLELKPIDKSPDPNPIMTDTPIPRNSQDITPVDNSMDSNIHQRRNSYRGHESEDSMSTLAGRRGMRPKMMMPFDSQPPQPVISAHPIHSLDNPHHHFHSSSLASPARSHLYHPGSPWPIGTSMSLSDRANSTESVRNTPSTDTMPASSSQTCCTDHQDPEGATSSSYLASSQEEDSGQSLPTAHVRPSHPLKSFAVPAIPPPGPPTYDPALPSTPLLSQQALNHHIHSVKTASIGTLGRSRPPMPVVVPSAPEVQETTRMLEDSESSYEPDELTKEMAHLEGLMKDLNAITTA

[4] = biological target: T4, full-length human UNC5A on fixed HEK293 cells (Retrogenix panel) (human, UniProt Q6ZN44 26-842)
T4 construct: whole, on cells
T4 sequence (looked up): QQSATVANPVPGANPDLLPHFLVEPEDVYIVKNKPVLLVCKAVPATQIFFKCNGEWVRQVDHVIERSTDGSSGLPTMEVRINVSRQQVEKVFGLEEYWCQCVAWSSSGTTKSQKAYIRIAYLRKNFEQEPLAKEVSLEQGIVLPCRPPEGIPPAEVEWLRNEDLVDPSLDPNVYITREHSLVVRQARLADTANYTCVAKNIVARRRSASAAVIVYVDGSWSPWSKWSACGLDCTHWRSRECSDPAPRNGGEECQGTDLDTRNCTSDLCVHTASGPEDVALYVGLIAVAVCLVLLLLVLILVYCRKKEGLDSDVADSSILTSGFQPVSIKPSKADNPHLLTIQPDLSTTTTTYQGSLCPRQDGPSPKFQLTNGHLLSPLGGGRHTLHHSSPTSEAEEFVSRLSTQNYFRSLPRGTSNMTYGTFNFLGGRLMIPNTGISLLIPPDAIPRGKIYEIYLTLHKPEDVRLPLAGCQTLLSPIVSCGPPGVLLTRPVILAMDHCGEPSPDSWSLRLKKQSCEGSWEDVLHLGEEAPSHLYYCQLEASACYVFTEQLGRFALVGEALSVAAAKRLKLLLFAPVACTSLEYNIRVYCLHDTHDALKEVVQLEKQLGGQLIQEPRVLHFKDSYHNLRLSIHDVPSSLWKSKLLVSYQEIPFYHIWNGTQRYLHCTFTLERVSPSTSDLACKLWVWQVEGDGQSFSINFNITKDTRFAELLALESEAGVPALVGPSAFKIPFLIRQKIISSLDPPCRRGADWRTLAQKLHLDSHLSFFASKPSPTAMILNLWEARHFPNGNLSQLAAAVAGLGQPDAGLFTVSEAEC

[5] = biological target: T5, full-length human DSCAM on fixed HEK293 cells (Retrogenix panel) (human, UniProt O60469 18-2012)
T5 construct: whole, on cells
T5 sequence (O60469 18-2012): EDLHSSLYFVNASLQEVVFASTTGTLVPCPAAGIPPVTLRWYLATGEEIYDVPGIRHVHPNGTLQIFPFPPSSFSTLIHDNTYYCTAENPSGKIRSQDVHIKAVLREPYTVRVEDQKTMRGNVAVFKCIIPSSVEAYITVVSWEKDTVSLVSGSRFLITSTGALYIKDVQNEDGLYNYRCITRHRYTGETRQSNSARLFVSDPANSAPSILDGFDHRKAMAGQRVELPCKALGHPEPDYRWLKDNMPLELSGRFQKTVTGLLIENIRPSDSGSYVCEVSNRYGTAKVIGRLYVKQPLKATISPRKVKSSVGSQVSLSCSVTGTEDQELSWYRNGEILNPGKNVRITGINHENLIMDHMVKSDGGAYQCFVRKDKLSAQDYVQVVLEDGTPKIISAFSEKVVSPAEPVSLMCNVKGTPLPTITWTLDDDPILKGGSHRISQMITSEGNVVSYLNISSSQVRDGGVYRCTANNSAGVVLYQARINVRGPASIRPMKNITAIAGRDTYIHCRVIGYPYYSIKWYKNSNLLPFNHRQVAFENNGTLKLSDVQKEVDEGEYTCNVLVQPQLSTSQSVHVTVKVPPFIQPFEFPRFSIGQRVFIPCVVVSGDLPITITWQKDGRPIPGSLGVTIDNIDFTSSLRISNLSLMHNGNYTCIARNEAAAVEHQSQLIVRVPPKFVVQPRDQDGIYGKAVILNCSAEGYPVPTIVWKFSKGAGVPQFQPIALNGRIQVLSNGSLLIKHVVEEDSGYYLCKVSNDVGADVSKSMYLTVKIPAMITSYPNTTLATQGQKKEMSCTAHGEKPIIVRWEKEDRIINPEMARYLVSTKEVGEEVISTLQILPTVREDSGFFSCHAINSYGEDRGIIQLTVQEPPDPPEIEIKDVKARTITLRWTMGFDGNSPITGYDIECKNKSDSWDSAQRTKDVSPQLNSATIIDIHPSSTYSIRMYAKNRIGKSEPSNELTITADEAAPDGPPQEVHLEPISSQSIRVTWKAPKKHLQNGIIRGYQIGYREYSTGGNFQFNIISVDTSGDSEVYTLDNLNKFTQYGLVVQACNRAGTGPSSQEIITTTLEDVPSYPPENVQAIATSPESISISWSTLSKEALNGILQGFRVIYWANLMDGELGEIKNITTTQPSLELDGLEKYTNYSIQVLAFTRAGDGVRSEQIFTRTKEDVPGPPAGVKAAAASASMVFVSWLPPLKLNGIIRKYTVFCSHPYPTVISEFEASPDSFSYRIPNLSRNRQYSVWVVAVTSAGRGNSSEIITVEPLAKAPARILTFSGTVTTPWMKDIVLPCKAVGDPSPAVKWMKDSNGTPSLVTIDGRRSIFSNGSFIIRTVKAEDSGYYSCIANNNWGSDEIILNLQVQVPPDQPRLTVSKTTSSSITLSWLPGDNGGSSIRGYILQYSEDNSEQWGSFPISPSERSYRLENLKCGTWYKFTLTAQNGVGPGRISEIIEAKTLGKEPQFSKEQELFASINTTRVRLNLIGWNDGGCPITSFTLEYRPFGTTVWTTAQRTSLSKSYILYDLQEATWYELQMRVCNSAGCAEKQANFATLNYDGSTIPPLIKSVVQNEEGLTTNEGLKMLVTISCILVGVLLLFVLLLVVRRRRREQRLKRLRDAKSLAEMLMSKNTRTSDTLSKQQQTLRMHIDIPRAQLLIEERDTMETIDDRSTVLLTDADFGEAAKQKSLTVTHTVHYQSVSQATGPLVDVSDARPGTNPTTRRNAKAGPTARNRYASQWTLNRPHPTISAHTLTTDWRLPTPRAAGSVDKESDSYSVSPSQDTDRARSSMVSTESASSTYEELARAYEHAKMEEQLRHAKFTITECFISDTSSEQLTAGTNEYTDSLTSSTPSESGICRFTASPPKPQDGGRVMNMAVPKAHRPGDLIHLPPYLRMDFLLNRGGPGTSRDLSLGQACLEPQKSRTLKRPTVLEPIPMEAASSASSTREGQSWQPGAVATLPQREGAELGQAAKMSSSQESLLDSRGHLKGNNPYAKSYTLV

Measured: binding result

T2 sequence (P43146 26-1447): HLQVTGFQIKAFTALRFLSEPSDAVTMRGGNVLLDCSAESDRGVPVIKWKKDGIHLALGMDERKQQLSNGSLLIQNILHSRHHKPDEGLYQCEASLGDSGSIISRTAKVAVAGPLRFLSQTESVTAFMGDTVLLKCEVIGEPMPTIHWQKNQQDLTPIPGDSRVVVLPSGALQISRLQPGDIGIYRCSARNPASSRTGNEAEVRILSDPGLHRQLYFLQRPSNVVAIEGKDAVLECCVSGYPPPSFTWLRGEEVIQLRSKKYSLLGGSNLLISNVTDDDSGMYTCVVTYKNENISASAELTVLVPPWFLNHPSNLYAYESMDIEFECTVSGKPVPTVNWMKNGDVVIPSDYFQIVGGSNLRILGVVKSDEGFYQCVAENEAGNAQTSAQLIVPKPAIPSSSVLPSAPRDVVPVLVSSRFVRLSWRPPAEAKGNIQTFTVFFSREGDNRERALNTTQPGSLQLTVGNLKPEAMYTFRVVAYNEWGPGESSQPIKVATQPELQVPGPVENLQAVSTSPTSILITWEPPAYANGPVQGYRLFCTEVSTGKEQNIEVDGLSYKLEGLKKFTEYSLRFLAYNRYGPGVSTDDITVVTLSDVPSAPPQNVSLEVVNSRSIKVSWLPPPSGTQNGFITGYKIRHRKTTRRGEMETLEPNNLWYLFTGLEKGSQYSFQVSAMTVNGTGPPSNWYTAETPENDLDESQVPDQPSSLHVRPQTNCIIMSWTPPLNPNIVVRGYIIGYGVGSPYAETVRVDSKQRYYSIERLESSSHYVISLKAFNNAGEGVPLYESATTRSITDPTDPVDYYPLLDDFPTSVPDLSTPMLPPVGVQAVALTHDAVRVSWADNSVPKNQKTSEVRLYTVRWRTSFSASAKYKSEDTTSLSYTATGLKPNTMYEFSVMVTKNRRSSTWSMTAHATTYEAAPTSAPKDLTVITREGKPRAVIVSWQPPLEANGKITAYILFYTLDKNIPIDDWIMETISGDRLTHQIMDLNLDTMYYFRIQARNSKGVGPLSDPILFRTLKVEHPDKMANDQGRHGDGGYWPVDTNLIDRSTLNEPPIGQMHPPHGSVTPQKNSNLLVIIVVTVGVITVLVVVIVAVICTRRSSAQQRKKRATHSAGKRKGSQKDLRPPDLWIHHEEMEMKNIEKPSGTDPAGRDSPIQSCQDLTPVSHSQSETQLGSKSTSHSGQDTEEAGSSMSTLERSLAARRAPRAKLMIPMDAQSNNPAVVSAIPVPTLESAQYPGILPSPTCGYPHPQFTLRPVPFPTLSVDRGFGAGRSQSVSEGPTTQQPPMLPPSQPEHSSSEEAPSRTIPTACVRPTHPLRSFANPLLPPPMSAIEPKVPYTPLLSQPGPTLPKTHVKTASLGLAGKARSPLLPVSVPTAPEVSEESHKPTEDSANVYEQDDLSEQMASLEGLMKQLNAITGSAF

B1: ATL_0006178 (antibody, IgG1, V domains shown)
VH: QVQLQESGPGLVKPSETLSLTCTVSGGSISSYFWSWIRQPPGKGLEWIGYIHYSGTTNQNPSLKSRVTISVDKSKNQFSLKLSSVTAADTAVYYCARGRGMATLPFDYWGQGTLVTVSS
VL: not shown
notes: Combination variant of ATL_5262 (T82K, Q67 kept, N58Y); also called ATL_6178; ATL6178
no binding: all assays above
